Results: US6673354B2, “Compositions and methods for treating papillomavirus-infected cells” (priority 1998, dated 2004)
Where no end group is shown, it is not given here.

Columns and labels:
[1] = target: T1, interaction between HPV11 E1 and HPV16 E2 (Human papillomavirus 11, UniProt P04014); assay: In vitro HPV E1-E2 binding assay, HPV11 E1 and HPV16 E2
T1 construct: made in house; host or cells: Hi-Five insect cells infected with recombinant baculovirus (HPV-11 EE-E1 virus a gift from Louise Chow); nuclear extracts
T1 sequence (P04014 whole entry, looked up): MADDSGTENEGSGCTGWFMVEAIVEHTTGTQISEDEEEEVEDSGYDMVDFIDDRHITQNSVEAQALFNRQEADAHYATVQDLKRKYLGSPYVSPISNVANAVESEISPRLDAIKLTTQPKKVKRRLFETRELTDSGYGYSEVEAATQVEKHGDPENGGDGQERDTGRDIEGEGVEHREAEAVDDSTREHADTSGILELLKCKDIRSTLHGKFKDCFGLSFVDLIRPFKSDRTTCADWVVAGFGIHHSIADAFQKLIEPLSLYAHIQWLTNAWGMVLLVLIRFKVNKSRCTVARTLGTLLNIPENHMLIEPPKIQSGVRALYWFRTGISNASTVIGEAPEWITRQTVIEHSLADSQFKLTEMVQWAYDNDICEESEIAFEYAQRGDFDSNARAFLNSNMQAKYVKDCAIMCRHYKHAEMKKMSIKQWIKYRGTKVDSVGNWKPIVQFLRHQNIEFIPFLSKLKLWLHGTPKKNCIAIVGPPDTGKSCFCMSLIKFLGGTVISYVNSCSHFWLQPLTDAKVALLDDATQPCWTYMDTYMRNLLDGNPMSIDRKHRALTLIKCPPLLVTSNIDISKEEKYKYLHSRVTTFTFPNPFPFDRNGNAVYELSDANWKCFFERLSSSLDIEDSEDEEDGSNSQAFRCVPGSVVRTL
Protocol: (§1) In vitro HPV E1-E2 binding assay. 300-500 ng protein from HPV16 or HPV11 EE-E1 expressing recombinant baculovirus infected cell nuclear extracts and 80-120 ng from HPV E2 baculovirus infected cell nuclear extracts were incubated in 500 μl NET-gel buffer (50 mM Tris-HCl pH7.5, 150 mM NaCl, 0.1% NP-40, 1 mM EDTA, 0.25% gelatin) at 4° C. for one hour. 1-2 μg anti-EE monoclonal antibody was added and incubated with shaking at 4° C. for one hour. Immune complexes were precipitated with protein-G agarose beads and washed twice for 30 minutes with ice cold NET-gel buffer. Precipitated proteins were detected by Western blot using appropriate primary antibodies and anti-rabbit IgG HRP or anti-mouse IgG HRP (Amersham). Membranes were blocked for one hour in TNET (10 mM Tris 7.5, 2.5 mM EDTA, 50 mM NaCl, 0.1% Tween-20) containing 4% (w/v) dry milk. Washes and antibody reactions were carried out in TNET, and proteins were visualized by chemiluminescence (Reneaissance ECL, NEN) and autoradiography. Bands were quantitated using the NIH image program.
(§2) Very little is known about the physical properties of domains within the papillomavirus E1 and E2 proteins that are involved in intermolecular recognition and association. […] The effect of the E2N-WP15 peptide on these interactions was also assessed. […]

[2] = target: T2, HPV11 E1/E2 interaction (Human papillomavirus 11, UniProt P04014); assay: In vitro HPV E1-E2 binding assay, HPV11 E1 and HPV11 E2
T2 construct: made in house; host or cells: Hi-Five insect cells infected with recombinant baculoviruses (gift from Louise Chow); nuclear extracts
T2 sequence (P04014 whole entry, looked up): T1 sequence (P04014 whole entry, looked up)
Protocol: as §1, §2

For WKHMRLACAIYYKAR [E2N-MP15], the “inhibition of interaction between HPV11 E1 and HPV16 E2” value [1] was “did not inhibit” and the “inhibition of HPV11 E1/E2 interaction” value [2] was “did not inhibit”.
